# Results reported in publication PMC4165444 (Biochemistry, 2014).
# B1: Saccharomyces cerevisiae alcohol dehydrogenase I (enzyme, UniProt P00330 1-348, looked up)
# chain: MSIPETQKGVIFYESHGKLEYKDIPVPKPKANELLINVKYSGVCHTDLHAWHGDWPLPVKLPLVGGHEGAGVVVGMGENVKGWKIGDYAGIKWLNGSCMACEYCELGNESNCPHADLSGYTHDGSFQQYATADAVQAAHIPQGTDLAQVAPILCAGITVYKALKSANLMAGHWVAISGAAGGLGSLAVQYAKAMGYRVLGIDGGEGKEELFRSIGGEVFIDFTKEKDIVGAVLKATDGGAHGVINVSVSEAAIEASTRYVRANGTTVLVGMPAGAKCCSDVFNQVVKSISIVGSYVGNRADTREALDFFARGLVKSPIKVVGLSTLPEIYEKMEKGQIVGRYVVDTSK
# modifications: disulfide bond between Cys-277 residues of the two subunits of a dimer
# Target: the molecule itself
# Assay: crystal structure
protein,measurement,value
B1,stoichiometry N,4 subunits per oligomer
